What all share (assay): ITC
(In general: In ITC the heat of successive injections is recorded.)

The target of experiment [1] is MjATG8-I, recombinant protein for ITC (Mirabilis jalapa).
For experiment [2], the target named is MjATG8-III, recombinant protein for ITC (Mirabilis jalapa).
In another experiment the target is PmPexRD54 AIM peptide (Phytophthora mirabilis).

B1: PiPexRD54 AIM peptide (peptide)
chain: KPLDFDWEIV
For orientation: Kd means the concentration at which binding is half-saturated. As to B1, the figures for the dissociation constant Kd in experiment [1] and in experiment [2] were 0.21 µM and 0.12 µM, respectively.

B2: potato ATG8-2.2 (StATG8-2.2), protein for ITC (natural protein)
chain: MAKSSFKLEHPLERRQAEAARIREKYPDRIPVIVEKAERSDIPDIDKKKYLVPADLTVGQFVYVVRKRIKLSAEKAIFIFVKNILPPTAAMMSAIYEEHKDEDGFLYMTYSGENTFG
On to B2, for which binding with PmPexRD54 AIM peptide was characterised by a dissociation constant (Kd) of 4200 µM.
